Experimental data taken from patent publication US20260001954A1 (Genentech, published 2026).

Tests used:
[1] = biological target: T1, CD3 (cluster of differentiation 3) (UniProt P07766 23-126); assay: method not stated; monovalent KD used to calculate CD3 receptor occupancy; monovalent KD, used for CD3 receptor occupancy
T1 construct: also called CD3 antigen

[2] = biological target: CD3 on T cells of human peripheral blood mononuclear cells (PBMCs) (human, UniProt P07766 23-207); assay: cell-based or functional assay
Sequence of CD3 on T cells of human peripheral blood mononuclear cells (PBMCs) (P07766 23-207): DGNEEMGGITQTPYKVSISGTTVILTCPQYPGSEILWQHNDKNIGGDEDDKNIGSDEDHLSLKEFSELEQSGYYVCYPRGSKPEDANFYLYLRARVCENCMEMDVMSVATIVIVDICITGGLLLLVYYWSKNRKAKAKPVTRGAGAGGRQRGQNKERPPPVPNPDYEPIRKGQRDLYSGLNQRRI

T1 sequence (P07766 23-126): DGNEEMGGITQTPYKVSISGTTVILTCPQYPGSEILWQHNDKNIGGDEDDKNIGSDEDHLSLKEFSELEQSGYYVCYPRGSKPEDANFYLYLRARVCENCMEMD

Kd [1]: 2.6 nM | 50% effective concentration (EC50) for T-cell activation in the in vitro human PBMC: MOLP-2 co-culture [2]: 0.0588 µg/mL
B1: cevostamab (bispecific antibody, human IgG1, kappa, N297G)
heavy 1: not shown
light 1: DIQMTQSPSSLSASVGDRVTITCKASQDVRNLVVWFQQKPGKAPKLLIYSGSYRYSGVPSRFSGSGSGTDFTLTISSLQPEDFATYYCQQHYSPPYTFGQGTKVEIKRTVAAPSVFIFPPSDEQLKSGTASVVCLLNNFYPREAKVQWKVDNALQSGNSQESVTEQDSKDSTYSLSSTLTLSKADYEKHKVYACEVTHQGLSSPVTKSFNRGEC
heavy 2: EVQLVQSGAEVKKPGASVKVSCKASGFTFTSYYIHWVRQAPGQGLEWIGWIYPENDNTKYNEKFKDRVTITADTSTSTAYLELSSLRSEDTAVYYCARDGYSRYYFDYWGQGTLVTVSSASTKGPSVFPLAPSSKSTSGGTAALGCLVKDYFPEPVTVSWNSGALTSGVHTFPAVLQSSGLYSLSSVVTVPSSSLGTQTYICNVNHKPSNTKVDKKVEPKSCDKTHTCPPCPAPELLGGPSVFLFPPKPKDTLMISRTPEVTCVVVDVSHEDPEVKFNWYVDGVEVHNAKTKPREEQYGSTYRVVSVLTVLHQDWLNGKEYKCKVSNKALPAPIEKTISKAKGQPREPQVYTLPPSREEMTKNQVSLSCAVKGFYPSDIAVEWESNGQPENNYKTTPPVLDSDGSFFLVSKLTVDKSRWQQGNVFSCSVMHEALHNHYTQKSLSLSPGK
light 2: not shown
notes: Humanized full-length non-glycosylated IgG1 kappa, knobs-into-holes; also called BFCR4350A; RO7187797
